From publication PMC9664404, “DNA-mediated proteolysis by neutrophil elastase enhances binding activities of the HMGB1 protein” (The Journal of Biological Chemistry, 2022)
Blank lines part the entries; values can stand above or below the binder they belong to.

Legend:
TLR4•MD-2 complex = target: T1, TLR4•MD-2 complex (UniProt O00206 24-631; Q9Y6Y9 19-160); assay: SPR; TLR4•MD-2 complex immobilised on a CM5 chip by amine coupling (1200 RU); HMGB1 proteins injected at 30 μl/min, 25 °C; 10 mM Hepes (pH 7.4), 150 mM NaCl, 3 mM EDTA, 0.005% v/v Tween-20; 1:1 binding model; Biacore T-100; three independent experiments; conditions: both partners purified
T1 construct: toll-like receptor 4 (TLR4) of the bought TLR4•MD-2 complex; MD-2 of the bought TLR4•MD-2 complex; also called toll-like receptor 4 • MD-2 complex; source: bought: R&D Systems (catalog no. 3146-TM-050), lyophilized
T1 sequence (O00206 24-631, chain 1 of 2): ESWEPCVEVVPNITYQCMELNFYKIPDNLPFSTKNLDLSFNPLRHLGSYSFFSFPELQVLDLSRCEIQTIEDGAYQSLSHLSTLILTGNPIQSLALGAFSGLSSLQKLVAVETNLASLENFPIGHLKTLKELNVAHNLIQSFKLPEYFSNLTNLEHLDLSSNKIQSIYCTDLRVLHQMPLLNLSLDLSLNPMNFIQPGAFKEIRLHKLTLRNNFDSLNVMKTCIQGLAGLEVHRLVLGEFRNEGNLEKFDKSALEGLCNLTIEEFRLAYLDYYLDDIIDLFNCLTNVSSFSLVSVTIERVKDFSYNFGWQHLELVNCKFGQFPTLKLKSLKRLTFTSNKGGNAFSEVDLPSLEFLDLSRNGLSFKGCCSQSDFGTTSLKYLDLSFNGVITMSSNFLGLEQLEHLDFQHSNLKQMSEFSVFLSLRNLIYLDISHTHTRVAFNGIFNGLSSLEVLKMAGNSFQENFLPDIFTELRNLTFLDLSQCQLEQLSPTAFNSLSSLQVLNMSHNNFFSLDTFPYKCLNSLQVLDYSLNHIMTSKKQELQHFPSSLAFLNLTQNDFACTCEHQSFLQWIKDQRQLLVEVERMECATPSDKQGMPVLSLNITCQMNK
T1 sequence (Q9Y6Y9 19-160, chain 2 of 2): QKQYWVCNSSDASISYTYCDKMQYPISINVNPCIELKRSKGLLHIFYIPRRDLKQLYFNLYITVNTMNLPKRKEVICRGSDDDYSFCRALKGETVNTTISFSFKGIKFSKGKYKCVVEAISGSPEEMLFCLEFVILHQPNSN

[1] = target: T2, HMGB1 full-length (disulfide form) (UniProt P09429 1-215); assay: fluorescence anisotropy; 150 mM NaCl; value only in figure; affinity lower than Δ39; 10 mM potassium phosphate pH 7.4, 200 mM NaCl (32G) or 150 mM NaCl (J1), 4 nM FAM-DNA, 25 °C; conditions: protein: recombinant; label: 5'-FAM on J1A; four-way junction of 4 x 16-mer strands
[2] = target: T3, HMGB1 Δ39 (disulfide form) (UniProt P09429 1-176, del177-215); assay: fluorescence anisotropy; 150 mM NaCl; value only in figure; affinity higher than full-length; 10 mM potassium phosphate pH 7.4, 200 mM NaCl (32G) or 150 mM NaCl (J1), 4 nM FAM-DNA, 25 °C; conditions: protein: recombinant; label: 5'-FAM on J1A; four-way junction of 4 x 16-mer strands
[3] = target: HMGB1 Δ44 (disulfide form) (UniProt P09429 1-171, del172-215); assay: fluorescence anisotropy; 200 mM NaCl; value only in figure; as strong as Δ39; 10 mM potassium phosphate pH 7.4, 200 mM NaCl (32G) or 150 mM NaCl (J1), 4 nM FAM-DNA, 25 °C; conditions: protein: recombinant; label: 5'-FAM; G-quadruplex
[4] = target: HMGB1 Δ40 (disulfide form) (UniProt P09429 1-175, del176-215); assay: as above; conditions: protein: recombinant; label: 5'-FAM; G-quadruplex
[5] = target: T2, HMGB1 full-length (disulfide form); assay: fluorescence anisotropy; 200 mM NaCl; value only in figure; affinity lower than Δ39; 10 mM potassium phosphate pH 7.4, 200 mM NaCl (32G) or 150 mM NaCl (J1), 4 nM FAM-DNA, 25 °C; conditions: protein: recombinant; label: 5'-FAM; G-quadruplex
[6] = target: T3, HMGB1 Δ39 (disulfide form); assay: fluorescence anisotropy; 200 mM NaCl; value only in figure; affinity higher than full-length; 10 mM potassium phosphate pH 7.4, 200 mM NaCl (32G) or 150 mM NaCl (J1), 4 nM FAM-DNA, 25 °C; conditions: protein: recombinant; label: 5'-FAM; G-quadruplex

B2: Holliday junction J1 (J1A/J1B/J1C/J1D) (structured_DNA)
DNA 1: CGCAATCCTGAGCACG
DNA 2: CGTGCTCACCGAATGC
DNA 3: GCATTCGGACTATGGC
DNA 4: GCCATAGTGGATTGCG
binding result [1]: binds | binding result [2]: binds

Binder: AGGGCGGTGTGGGAAGAGGGAAGAGGGGGAGG (structured_DNA) [FAM-32G G-quadruplex]
binding result [3]: binds | binding result [4]: binds | binding result [5]: binds | binding result [6]: binds

Continued, values first:

Kd (TLR4•MD-2 complex): 367 nM
B1: full-length (FL) disulfide HMGB1 protein (high-mobility-group-box-1, oxidized) (natural protein, UniProt P09429 1-215, looked up)
chain: MGKGDPKKPRGKMSSYAFFVQTCREEHKKKHPDASVNFSEFSKKCSERWKTMSAKEKGKFEDMAKADKARYEREMKTYIPPKGETKKKFKDPNAPKRPPSAFFLFCSEYRPKIKGEHPGLSIGDVAKKLGEMWNNTAADDKQPYEKKAAKLKEKYEKDIAAYRAKGKPDAAKKGVVKAEKSKKKKEEEEDEEDEEDEEEEEDEEDEDEEEDDDDE
modifications: disulfide bond between Cys23 and Cys45
notes: 215 residues (D/E repeats are residues 186-215); also called FL HMGB1; intact disulfide HMGB1; source: E. coli BL21(DE3), purified (SP-FF cation exchange, Resource-Q anion exchange, Sephacryl S-100 HR SEC)

Kd (TLR4•MD-2 complex): 25 nM
B3: Δ39 variant of disulfide HMGB1 (lacks the C-terminal 39 residues) (domain or fragment, UniProt P09429 1-176, looked up)
chain: MGKGDPKKPRGKMSSYAFFVQTCREEHKKKHPDASVNFSEFSKKCSERWKTMSAKEKGKFEDMAKADKARYEREMKTYIPPKGETKKKFKDPNAPKRPPSAFFLFCSEYRPKIKGEHPGLSIGDVAKKLGEMWNNTAADDKQPYEKKAAKLKEKYEKDIAAYRAKGKPDAAKKGVV
modifications: disulfide bond between Cys23 and Cys45
notes: HMGB1 of GenBank CAG33144.1 with a stop codon at K177; lacks residues 177-215, ends at V176; also called Δ39 product; source: E. coli BL21(DE3), purified (SP-FF cation exchange, Resource S cation exchange, Sephacryl S-100 HR SEC)
